Reference: paper PMC10942449 (bioRxiv, 2024)

Columns and labels:
[1] = biological target: sc9–10 DS-Cav1-His6 (respiratory syncytial virus subtype A, strain A2 | not stated) (UniProt P03420); experiment: SEC
[2] = biological target: sc9–10 DS-Cav1-His6 (respiratory syncytial virus subtype A, strain A2 | not stated) (UniProt P03420); experiment: cross-linking
[3] = biological target: DS-Cav1 (respiratory syncytial virus subtype A, strain A2 | not stated) (UniProt P03420); experiment: SEC
[4] = biological target: DS-Cav1-His6 (respiratory syncytial virus subtype A, strain A2 | not stated) (UniProt P03420); experiment: SEC
[5] = biological target: DS-Cav1-His6 (respiratory syncytial virus subtype A, strain A2 | not stated) (UniProt P03420); experiment: cross-linking
[6] = biological target: sc9–10 DS-Cav1 (respiratory syncytial virus subtype A, strain A2 | not stated) (UniProt P03420); experiment: SEC
UFCM1-P2 = UFCM1-P2 (human metapneumovirus, …, UniProt Q1A2Z0, E80D | T127C | N153C | A185P | V155P); experiment: ELISA
UFCM1 = UFCM1 (human metapneumovirus, …, UniProt Q1A2Z0, E80D | T127C | N153C | A185P); experiment: ELISA

In the case of “sc9–10 DS-Cav1-His6 (from UniProt P03420 26-513) (domain or fragment)”, the stoichiometry N [1] is reported as 3 and the stoichiometry N [2] is reported as 3.

In the case of “DS-Cav1 (from UniProt P03420 26-513) (domain or fragment)”, the stoichiometry N [3] is reported as 3.

In the case of “DS-Cav1-His6 (from UniProt P03420 26-513) (domain or fragment)”, the stoichiometry N [4] is reported as 3 and the stoichiometry N [5] is reported as 3.

“sc9–10 DS-Cav1 (from UniProt P03420 26-513) (domain or fragment)” showed a stoichiometry N [6] of 3.

B1: MPE8 IgG (antibody, V domains shown)
VH: EVQLVESGGGLVKPGGSLRLSCAASGFTFSSYSMNWVRQAPGKGLEWVSSISASSSYSDYADSAKGRFTISRDNAKTSLFLQMNSLRAEDTAIYFCARARATGYSSITPYFDIWGQGTLVTVSS
VL: QSVVTQTPSVSGAPGQRVTISCTGSSSNIGAGYDVHWYQQLPGTAPKLLIYDNNNRPSGVPDRFSASKSGTSASLAITGLQAEDEADYYCQSYDRNLSGVFGTGTKVTVL
B1: binds (UFCM1-P2); binds (UFCM1).
